To fix the notation:
T1: human CD20 (human, UniProt P11836 1-297)
T1 construct: whole, on cells; cell-surface antigen; also called MS4A1
T1 sequence (looked up): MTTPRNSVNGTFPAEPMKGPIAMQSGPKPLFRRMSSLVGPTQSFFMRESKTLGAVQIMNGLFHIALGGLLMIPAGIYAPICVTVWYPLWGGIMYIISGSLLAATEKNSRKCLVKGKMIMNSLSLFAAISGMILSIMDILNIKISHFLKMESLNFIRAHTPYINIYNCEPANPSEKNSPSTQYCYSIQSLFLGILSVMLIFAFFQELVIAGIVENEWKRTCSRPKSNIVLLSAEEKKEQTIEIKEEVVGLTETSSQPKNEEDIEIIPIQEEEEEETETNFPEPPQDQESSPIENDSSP

B1: CD20-C5H1 CAR (other)
chain: QVQLVQSGAEVKKPGASVKVSCKASGYTFTSYNMHWVRQAPGQGLEWMGAIYPGNGDTSYNPKFKGRVTMTADKSTRTAYMELSSLRSEDTAVYYCARSYFYGSSSWYFDVWGQGTTVTVSSGGGGSGGGGSGGGGSGGGGSEIVLTQSPATLSLSPGERATLSCRASSSVSSMHWYQQKPGQAPRPLIFATSNLASGIPARFSGSGSGTDYTLTISSLEPEDAAVYYCQQWIFNPPTFGGGTKVEIKTTTPAPRPPTPAPTIASQPLSLRPEACRPAAGGAVHTRGLDFACDIYIWAPLAGTCGVLLLSLVITLYCKRGRKKLLYIFKQPFMRPVQTTQEEDGCSCRFPEEEEGGCELRVKFSRSADAPAYQQGQNQLYNELNLGRREEYDVLDKRRGRDPEMGGKPRRKNPQEGLYNELQKDKMAEAYSEIGMKGERRRGKGHDGLYQGLSTATKDTYDALHMQALPPR
notes: CAR on cell surface; residues 1-21 = signal peptide
B2: CD20-C5H3 CAR (other)
chain: B1 chain with A16S, M70I
notes: as for B1
B3: CD20-C8H1 CAR (other)
chain: QVQLVQSGAEVKKPGASVKVSCKASGYTFTRYNMHWVRQAPGQRLEWMGAIYPGNGDTSYSQKFKGRVTITADKSASTAYMELSSLRSEDTAVYYCARSFFYGSSDWYFDVWGQGTTVTVSSGGGGSGGGGSGGGGSGGGGSEIVLTQSPDFQSVTPKEKVTITCRASSSVNNMHWYQQKPDQSPKPLIYATSNLASGVPSRFSGSGSGTDYTLTINSLEAEDAATYYCQQWIFNPPTFGQGTKLEIKTTTPAPRPPTPAPTIASQPLSLRPEACRPAAGGAVHTRGLDFACDIYIWAPLAGTCGVLLLSLVITLYCKRGRKKLLYIFKQPFMRPVQTTQEEDGCSCRFPEEEEGGCELRVKFSRSADAPAYQQGQNQLYNELNLGRREEYDVLDKRRGRDPEMGGKPRRKNPQEGLYNELQKDKMAEAYSEIGMKGERRRGKGHDGLYQGLSTATKDTYDALHMQALPPR
notes: as for B1
B4: CD20-C8H3 CAR (other)
chain: B3 chain with A16S, R44G, A76T
notes: as for B1
B5: CD20-C3H1 CAR (other)
chain: QVQLVQSGAEVKKPGASVKVSCKASGYTFTNYNLHWVRQAPGQGLEWMGAIYPGNYDTSYNQKFKGRVTMTADKSTSTAYMELSSLRSEDTAVYYCARVDFGHSRYWYFDVWGQGTTVTVSSGGGGSGGGGSGGGGSGGGGSEIVLTQSPATLSLSPGERATLSCRATSSVSSMNWYQQKPGQAPRPLIHATSNLASGIPARFSGSGSGTDYTLTISSLEPEDAAVYYCQQWTFNPPTFGQGTKLEIKTTTPAPRPPTPAPTIASQPLSLRPEACRPAAGGAVHTRGLDFACDIYIWAPLAGTCGVLLLSLVITLYCKRGRKKLLYIFKQPFMRPVQTTQEEDGCSCRFPEEEEGGCELRVKFSRSADAPAYQQGQNQLYNELNLGRREEYDVLDKRRGRDPEMGGKPRRKNPQEGLYNELQKDKMAEAYSEIGMKGERRRGKGHDGLYQGLSTATKDTYDALHMQALPPR
notes: as for B1
B6: CD20-C2H1 CAR (other)
chain: QVQLVQSGAEVKKPGASVKVSCKASGYTFTNYWMHWVRQAPGQGLEWMGFITPTTGYPEYNQKFKDRVTMTADKSTSTAYMELSSLRSEDTAVYYCARRKVGKGVYYALDYWGQGTTVTVSSGGGGSGGGGSGGGGSGGGGSDIQMTQSPSSLSASVGDRVTITCRASGNIHNYLAWYQQKPGKVPKLLIYNTKTLADGVPSRFSGSGSGTDYTLTISSLQPEDVATYYCQHFWSSPWTFGGGTKVEIKTTTPAPRPPTPAPTIASQPLSLRPEACRPAAGGAVHTRGLDFACDIYIWAPLAGTCGVLLLSLVITLYCKRGRKKLLYIFKQPFMRPVQTTQEEDGCSCRFPEEEEGGCELRVKFSRSADAPAYQQGQNQLYNELNLGRREEYDVLDKRRGRDPEMGGKPRRKNPQEGLYNELQKDKMAEAYSEIGMKGERRRGKGHDGLYQGLSTATKDTYDALHMQALPPR
notes: CAR on cell surface
B7: CD20-C2H3 CAR (other)
chain: B6 chain with D143A, Q145R, S151F, G183A, V185A, L189F, V225F
notes: as for B1
B8: CD20-C2H4 CAR (other)
chain: B6 chain with A16S, M70I, D143A, Q145R, S151F, G183A, V185A, L189F, V225F
notes: as for B1
B9: CD20-C2H2 CAR (other)
chain: B6 chain with A16S, M70I
notes: as for B1
B10: CD20-C8H2 CAR (other)
chain: QVQLVQSGAEVKKPGASVKVSCKASGYTFTRYNMHWVRQAPGQRLEWMGAIYPGNGDTSYSQKFKGRVTITADKSASTAYMELSSLRSEDTAVYYCARSFFYGSSDWYFDVWGQGTTVTVSSGGGGSGGGGSGGGGSGGGGSDIQLTQSPSFLSASVGDRVTITCRASSSVNNMHWYQQKPGKAPKPLIYATSNLASGVPSRFSGSGSGTEYTLTISSLQPEDFATYYCQQWIFNPPTFGQGTKLEIKTTTPAPRPPTPAPTIASQPLSLRPEACRPAAGGAVHTRGLDFACDIYIWAPLAGTCGVLLLSLVITLYCKRGRKKLLYIFKQPFMRPVQTTQEEDGCSCRFPEEEEGGCELRVKFSRSADAPAYQQGQNQLYNELNLGRREEYDVLDKRRGRDPEMGGKPRRKNPQEGLYNELQKDKMAEAYSEIGMKGERRRGKGHDGLYQGLSTATKDTYDALHMQALPPR
notes: as for B1
B11: CD20-C3H2 CAR (other)
chain: QVQLVQSGAEVKKPGASVKVSCKASGYTFTNYNLHWVRQAPGQGLEWMGAIYPGNYDTSYNQKFKGRVTMTADKSTSTAYMELSSLRSEDTAVYYCARVDFGHSRYWYFDVWGQGTTVTVSSGGGGSGGGGSGGGGSGGGGSDIQLTQSPSFLSASVGDRVTITCRATSSVSSMNWYQQKPGKAPKPLIHATSNLASGVPSRFSGSGSGTEYTLTISSLQPEDFATYYCQQWTFNPPTFGQGTKLEIKTTTPAPRPPTPAPTIASQPLSLRPEACRPAAGGAVHTRGLDFACDIYIWAPLAGTCGVLLLSLVITLYCKRGRKKLLYIFKQPFMRPVQTTQEEDGCSCRFPEEEEGGCELRVKFSRSADAPAYQQGQNQLYNELNLGRREEYDVLDKRRGRDPEMGGKPRRKNPQEGLYNELQKDKMAEAYSEIGMKGERRRGKGHDGLYQGLSTATKDTYDALHMQALPPR
notes: as for B1
B12: CD20-C5H4 CAR (other)
chain: QVQLVQSGAEVKKPGSSVKVSCKASGYTFTSYNMHWVRQAPGQGLEWMGAIYPGNGDTSYNPKFKGRVTITADKSTRTAYMELSSLRSEDTAVYYCARSYFYGSSSWYFDVWGQGTTVTVSSGGGGSGGGGSGGGGSGGGGSDIQLTQSPSFLSASVGDRVTITCRASSSVSSMHWYQQKPGKAPKPLIFATSNLASGVPSRFSGSGSGTEYTLTISSLQPEDFATYYCQQWIFNPPTFGGGTKVEIKTTTPAPRPPTPAPTIASQPLSLRPEACRPAAGGAVHTRGLDFACDIYIWAPLAGTCGVLLLSLVITLYCKRGRKKLLYIFKQPFMRPVQTTQEEDGCSCRFPEEEEGGCELRVKFSRSADAPAYQQGQNQLYNELNLGRREEYDVLDKRRGRDPEMGGKPRRKNPQEGLYNELQKDKMAEAYSEIGMKGERRRGKGHDGLYQGLSTATKDTYDALHMQALPPR
notes: as for B1
B13: CD20-C5H2 CAR (other)
chain: B12 chain with S16A, I70M
notes: as for B1
B14: CD20-C8H4 CAR (other)
chain: B10 chain with A16S, R44G, A76T
notes: as for B1

The values that follow come from patent US20180125892A1 (published 2018).

Residue numbers refer to the chain shown, from its start.

For this test, the target named is T1, human CD20. The experiment in a line: worded conclusion from JNL NFAT-luciferase reporter co-culture with CD20-positive cell lines. An excerpt:
To evaluate the functional ability of CD20 CARs to activate JNL cells, they were co-cultured with target cancer cells to read out their activation by quantifying luciferase expression. The humanized scFv-based CARs CD20-C2H1, -C2H2, -C2H3, -C2H4, -C3H1, -C3H2, -C3H3, -C3H4, -C5H1, -C5H2, -C5H3, -C5H4, -C8H1, -C8H2, -C8H3, and -C8H4, were compared to CD20-8aBBz and CD20-3, -3m, -3J, -3H5k3, and -3H5k1. The control CARs CD20-3 and CD20-8aBBz were used in all assays to compare assay variation and/or act as a control. The EGFRvIII CAR T cells (CAR 2174, Johnson et al., Science Translational Medicine 2015) were used as non-targeting control.
JNL CART cells were co-cultured with the Burkitt's lymphoma line Raji (RRID: CVCL_0511) and the diffuse large B cell lymphoma (DLBCL) lines Pfeiffer (RRID: CVCL_3326), HBL-1 (RRID: CVCL_4213) and TMD8 (RRID: CVCL_A442); K562 (RRID: CVCL_0004), a chronic myelogenous leukemia (CML) cell line, served as CD20-negative control. Co-cultures were set up in 384-well plates at effector-to-target (E:T) ratios of 4:1, 2:1, 1:1 and 0.5:1 and incubated for 24 h, after which the expression of luciferase by the activated JNL CAR T cells was quantified by britelite plus Reporter Gene Assay System (PerkinElmer, Waltham, Mass.). The amount of light emitted from each well (Luminescence) was a direct read-out of JNL activation by the respective CAR. […] Some of the humanized scFvs, which were fused to the transmembrane and signaling domains of the CARs, seem to have improved the efficacy of CARs to activate JNL T cells. These were CD20-C2H1, -C2H3, -C5H1, -C5H2, and -C8H3.
(In general: A reporter such as luciferase makes a cellular process visible.)
For B1, the binding result is recorded as “binds”.

As for B2, the binding result is “binds”.

As for B3, the binding result is recorded as “binds”.

For B4, the binding result is recorded as “binds”.

For B5, the binding result is “binds”.

With B6, the binding result was “binds”.

For the molecule B7, the binding result is listed as “binds”.

As to B8, the binding result is “binds”.

For B9, the binding result is recorded as “binds”.

Turning to B10, the binding result is on record as “binds”.

On to B11, for which the binding result was “binds”.

For B12, the binding result was “binds”.

Consider B13, for which the binding result was “binds”.

On to B14, for which the binding result is “binds”.
